# Legend:
# FaDu cells = assay: Confocal FLIM of FaDu cells incubated with imaging probes; format: cell-based; conditions: 100 μg probe, 2 hours incubation
# Experimental: Also, a […] 8 FALCON (Leica, Germany) FLIM system was used for NIR FLIM of 10-μm thin tissue sections (murine tumors and clinical specimens). Imaging was performed using 730 nm excitation with 750 nm notch filter and detected with a HyD R detector operating within 770-850 nm range. A 10×, 0.4 NA objective was used for image collection and digital images with 512×512 pixels (2.275 μm/pixel), 4 line repetitions and 4 line averages were obtained. TD data was collected using time-correlated single photon counting.
# For in vitro experiments, FaDu cells were plated at 0.2×10^6 cells per well in a 12-well plate containing poly-D-lysine coated glass coverslips and were allowed to adhere to the coverslips for 24 hours. […] After probe incubation, cells were fixed in 4% para-formaldehyde (PFA) and mounted with ProLong Gold Antifade medium (ThermoFisher Scientific, Waltham, Massachusetts, United States) for confocal FLIM.
# For the FLIM and IHC image analysis, the FALCON/FLIM software was used to collect and analyze the FLIM data. Lifetime values at each pixel location was calculated by using a single exponential fitting of the fluorescence decay curves. […] IHC image ROIs were analyzed by color deconvolution using the IHC Tool Box in ImageJ (NIH, Version 1.48u) to extract EGFR positive pixels within each ROI. […] Corresponding FLIM image ROIs were analyzed by averaging FLT values above 0.3 ns. […]
# [1] = Widefield FLT of probes in culture media and stock solution in PBS; format: physicochemical
# Excerpt: In accordance with one particular and non-limiting study, for widefield time-domain imaging, a system akin that of FIG. 1 was used that included a Supercontinuum laser and tunable filter (EXR-20, SuperK Varia, NKT Photonics, 80 MHz repetition rate; 400-850 nm tuning range) providing 770±30 nm excitation, a multimode fiber (Thorlabs, Newton, New Jersey, United States) delivering light to the sample, and a gated intensified CCD (LaVision, Picostar, 500 V gain, 0.1 to 1 second integration time, 150 ps steps, 256×344 pixels after 4×4 hardware binning). A digital micromirror device was used to expand the output of the optical fiber and delivered to the surface of the animal. The average total power across the illumination area (approximately 6×8-cm) was 10 to 20 mW. Fluorescence was collected in reflectance mode using an 835/70-nm band-pass filter. TD fluorescence imaging was performed with a gate width of 600 ps and 150 ps steps for a total duration of approximately 6 ns per laser duty cycle of 12.5 ns. […] Animals were sacrificed after imaging and tumors were immediately frozen in optimal cutting temperature (OCT) compound for fluorescence lifetime imaging microscopy (FLIM), histology and immunohistochemical (IHC) staining.
# For the widefield TD data analysis, TD fluorescence images were analyzed in MATLAB (MathWorks, Natick, Massachusetts, United States) using a custom software. […]
# [2] = several recent clinical trials; cited from earlier work
substance,measurement,setting,value
"panitumumab-IRDye800CW: conjugate of the FDA approved therapeutic antibody for the epidermal growth factor receptor (EGFR), panitumumab, with IRdye800CW, an NIR dye",probe uptake in cells,FaDu cells,higher probe uptake
same,FLT in culture media,[1]; culture media collected after incubation with cancer cells,0.58 ns
same,FLT of stock solution in PBS,[1]; stock solution in PBS,0.58 ns
same,safety in humans,[2],safe for human use
